How the values were obtained:
[1] = biological target: T1, human LEPR extracellular domain expressed with a C-terminal mouse IgG2a Fc tag (hLEPR.mFc) (human); experiment: SPR, captured mAb, 37C
T1 construct: also called dimeric human LEPR
T1 chain: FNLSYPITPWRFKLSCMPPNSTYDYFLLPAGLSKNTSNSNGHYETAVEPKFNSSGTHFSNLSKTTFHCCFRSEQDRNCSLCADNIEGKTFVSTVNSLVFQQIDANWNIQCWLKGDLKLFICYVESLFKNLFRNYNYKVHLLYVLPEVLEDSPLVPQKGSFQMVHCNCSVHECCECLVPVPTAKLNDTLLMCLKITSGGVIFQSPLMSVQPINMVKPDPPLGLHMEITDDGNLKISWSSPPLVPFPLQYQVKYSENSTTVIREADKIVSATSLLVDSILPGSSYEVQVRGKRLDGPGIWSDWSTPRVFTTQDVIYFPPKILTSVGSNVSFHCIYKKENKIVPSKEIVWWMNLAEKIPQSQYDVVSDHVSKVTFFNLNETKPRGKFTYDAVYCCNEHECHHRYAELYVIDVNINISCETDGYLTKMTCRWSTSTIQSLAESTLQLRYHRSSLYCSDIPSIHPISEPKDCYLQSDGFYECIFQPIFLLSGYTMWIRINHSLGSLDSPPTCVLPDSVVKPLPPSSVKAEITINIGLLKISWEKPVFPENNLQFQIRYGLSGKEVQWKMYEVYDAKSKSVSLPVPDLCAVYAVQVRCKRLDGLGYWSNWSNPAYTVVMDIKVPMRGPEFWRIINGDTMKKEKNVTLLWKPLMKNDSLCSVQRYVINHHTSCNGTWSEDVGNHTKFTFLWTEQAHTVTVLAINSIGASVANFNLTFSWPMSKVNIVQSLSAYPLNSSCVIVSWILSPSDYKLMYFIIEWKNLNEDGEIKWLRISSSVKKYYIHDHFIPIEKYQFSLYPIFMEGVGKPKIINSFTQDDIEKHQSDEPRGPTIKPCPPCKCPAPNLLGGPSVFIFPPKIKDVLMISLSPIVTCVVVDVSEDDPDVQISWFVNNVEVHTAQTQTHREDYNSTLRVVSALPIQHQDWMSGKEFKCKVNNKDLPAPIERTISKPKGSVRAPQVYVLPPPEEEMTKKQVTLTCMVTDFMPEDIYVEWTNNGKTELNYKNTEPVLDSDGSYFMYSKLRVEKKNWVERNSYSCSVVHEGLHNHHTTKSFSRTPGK
Procedure: (§1) Equilibrium dissociation constants (KD values) for LEPR binding to purified anti-LEPR monoclonal antibodies were determined using a real-time surface plasmon resonance biosensor using a Biacore 4000 instrument. All binding studies were performed in 10 mM HEPES, 150 mM NaCl, 3 mM EDTA, and 0.05% v/v Surfactant Tween-20, pH 7.4 (HBS-ET) running buffer at 25° C. and 37° C. The Biacore sensor surface was first derivatized by amine coupling with a monoclonal mouse anti-human Fc antibody (GE, #BR-1008-39) to capture anti-LEPR monoclonal antibodies. […] Kinetic association (kₐ) and dissociation (kd) rate constants were determined by fitting the real-time binding sensorgrams to a 1:1 binding model with mass transport limitation using Scrubber 2.0c curve-fitting software. Binding dissociation equilibrium constants (KD) and dissociative half-lives (t½) were calculated from the kinetic rate constants as: […]

[2] = biological target: T2, Macaca fascicularis LEPR extracellular domain expressed with a C-terminal myc-myc-hexahistidine tag … (Macaca fascicularis, UniProt Q9MYL0 22-837 (rhesus entry)); experiment: SPR, captured mAb, 37C
T2 construct: also called mfLEP.MMH
Procedure: as §1

[3] = biological target: T3, human LEPR extracellular domain expressed with a C-terminal myc-myc-hexahistidine tag (hLEPR.mmh) (human, UniProt P48357 22-839); experiment: SPR, captured mAb, 37C
T3 construct: also called human LEPR-MMH; monomeric human LEPR
Procedure: as §1

[4] = biological target: T1, human LEPR extracellular domain …; experiment: SPR, captured mAb, 25C
Procedure: as §1

[5] = biological target: T2, Macaca fascicularis LEPR extracellular …; experiment: SPR, captured mAb, 25C
Procedure: as §1

[6] = biological target: T3, human LEPR extracellular domain …; experiment: SPR, captured mAb, 25C
Procedure: as §1

[7] = biological target: T3, human LEPR extracellular domain …; experiment: Luminex, myc-captured full length extracellular domain
Procedure: Aliquots of microspheres with immobilized anti-myc monoclonal antibodies, prepared as described above, were added individually to 1 mL of the each of these protein supernatants. The microspheres were gently mixed, incubated for two hours at 25° C., washed twice with 1 mL of DBPS, centrifuged to remove the supernatant and finally resuspended in 1 mL of DPBS buffer. Forty-eight μL of anti-myc IgG coupled microspheres from individual reactions with full length human LEPR and with each of the human LEPR domain proteins were withdrawn and mixed together in 3.6 mL of PBS+20 mg/mL BSA+0.05% sodium azide (blocking buffer).
From this mixed pool, 75 μL of microspheres were plated per well on a 96 well filter plate (Millipore, Cat. No: MSBVN1250) and mixed with 25 μL of individual anti-human LEPR monoclonal antibodies (0.5 or 5 µg/mL), incubated for two hours at 25° C. and then washed twice with 200 μL of DPBS with 0.05% Tween 20 (washing buffer). […] After 30 minutes, the samples were washed twice with 200 μL of washing buffer and resuspended in 150 μL of wash buffer. The Median Fluorescence intensity (MFI) of the microspheres was measured in a Luminex Analyzer.

B1: H4H18446P2 (antibody, human IgG4, V domains shown)
VH: EVQLVESGGGLVQPGGSLRLSCAASGFTFSNYGMTWVRQAPGKGLEWVSAITGGGGSTYYSNSVKGRFTISRDNSKNTVYLRMNSVRAEDTAVYYCAKYKWNFVDDWGQGTTVTVSS
VL: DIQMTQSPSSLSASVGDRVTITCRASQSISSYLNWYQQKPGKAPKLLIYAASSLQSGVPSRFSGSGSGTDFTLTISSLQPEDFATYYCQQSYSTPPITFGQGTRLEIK
notes: Fully human antibody with human IgG4 Fc (H4H prefix)
100 nM hLEPR-mFc Bound (RU) [1]: 34 RU | Kd [1]: 12.8 nM | koff [1]: 0.000548 s⁻¹ | kon [1]: 42700 M⁻¹ s⁻¹ | t½ [1]: 21 min | 100 nM mfLEPR.MMH Bound (RU) [2]: 30 RU | Kd [2]: 140 nM | koff [2]: 0.00354 s⁻¹ | kon [2]: 25300 M⁻¹ s⁻¹ | t½ [2]: 3.3 min | 100 nM hLEPR-MMH Bound (RU) [3]: 21 RU | Kd [3]: 121 nM | koff [3]: 0.00256 s⁻¹ | kon [3]: 21200 M⁻¹ s⁻¹ | t½ [3]: 4.5 min | 100 nM hLEPR-mFc Bound (RU) [4]: 20 RU | Kd [4]: 6.48 nM | koff [4]: 0.000208 s⁻¹ | kon [4]: 32000 M⁻¹ s⁻¹ | t½ [4]: 56 min | 100 nM mfLEP.MMH Bound (RU) [5]: 23 RU | Kd [5]: 58.3 nM | koff [5]: 0.00112 s⁻¹ | kon [5]: 19300 M⁻¹ s⁻¹ | t½ [5]: 10 min | 100 nM hLEPR-MMH Bound (RU) [6]: 16 RU | Kd [6]: 52.5 nM | koff [6]: 0.000951 s⁻¹ | kon [6]: 18100 M⁻¹ s⁻¹ | t½ [6]: 12 min | MFI [7]: 10500 MFI

— patent publication US20250051465A1 (published 2025)
